From article PMC3809846 (International journal of cancer. Journal international du …, 2012)
Residue numbers refer to the chain shown, from its start. No end group written: not given here.

T1: biotinylated podoplanin peptide (hpp38-51) (Homo sapiens, UniProt Q86YL7, also: biotin, position not given here)
T1 chain: EGGVAMPGAEDDVV

B1: NZ-1 monoclonal antibody (antibody, V domains shown)
VH: EVQLVESGGGLVQPGRSLKLSCAASGFTFSNYGMAWVRQTPTKGLEWIASISAGGDKTYYGDSVKGRFSISRDNAKTTHYLQMDSLRSEDTATYYCAKTSRVYFDYWGQGVMVTVSS
VL: QFVLTQPNSVSTNLGSTVKLSCKRSTGNIGSNYVNWYQQHEGRSPTTMIYRDDKRPDGVPDRFSGSIDRSSNSALLTINNVQTEDEADYFCHSYSSGIVFGGGTKLTVL
B2: NZ-1-(scdsFv) (scFv, V domains shown)
VH: B1 VH with G44C
VL: B1 VL with G103C

What was measured:
[1] = target: podoplanin expressed on brain tumor cells (Homo sapiens, UniProt Q86YL7); experiment: flow cytometry on cells
[2] = target: T1, biotinylated podoplanin peptide …; experiment: SPR

Sequence of podoplanin expressed on brain tumor cells (Q86YL7 23-162): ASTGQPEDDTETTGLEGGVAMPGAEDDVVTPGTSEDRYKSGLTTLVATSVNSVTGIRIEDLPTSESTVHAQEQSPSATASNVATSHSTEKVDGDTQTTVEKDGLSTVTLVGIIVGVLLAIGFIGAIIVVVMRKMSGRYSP

Row | Binder | binding result [1] | Ka [2] [M⁻¹]
1 | B1 | binds | 
2 | B2 |  | 4.8e+07
